Literature values as cited in publication PMC7488417.

Target: cJun LZ (Homo sapiens) (UniProt P05412)
Experiment: ITC

Chain of cJun LZ (Homo sapiens) (P05412 277-308): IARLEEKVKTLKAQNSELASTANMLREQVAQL
Chain of cFos LZ (P01100 162-193): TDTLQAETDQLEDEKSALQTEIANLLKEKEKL

Substance: cFos LZ (from UniProt P01100)
- Kd: 26.6 µM
